Values of other authors as cited in article PMC5529358.

How the values were obtained:
[1] = target: insulin receptor isoform B isoform B (Homo sapiens) (UniProt P06213)
[2] = target: insulin receptor isoform A isoform A (Homo sapiens) (UniProt P06213)

Chain of insulin (P01308 90-110): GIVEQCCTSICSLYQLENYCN

| Substance | Kd [1] [nM] | Kd [2] [nM] |
| --- | --- | --- |
| insulin (from UniProt P01308) | 1.4 | – |
| IGF-1 (from UniProt P05019) | – | 120 |
